Laboratory results taken from patent US20230039165A1 (ENTHERA S R L, published 2023).
Residue numbers refer to the chain shown, from its start. Each block holds one binder with its values, some of them ahead of it.

How the values were obtained:
Recombinant human IGFBP3 [1] = biological target: T1, Recombinant human IGFBP3 (human, UniProt P17936 28-291); assay: Octet BLI; mAb captured via Fc on anti-mouse/anti-human IgG Fc biosensor, human IGFBP3 at 150 nM
T1 construct: also called rhIGFBP3; hIGFBP3
T1 sequence (P17936 28-291 limits assumed): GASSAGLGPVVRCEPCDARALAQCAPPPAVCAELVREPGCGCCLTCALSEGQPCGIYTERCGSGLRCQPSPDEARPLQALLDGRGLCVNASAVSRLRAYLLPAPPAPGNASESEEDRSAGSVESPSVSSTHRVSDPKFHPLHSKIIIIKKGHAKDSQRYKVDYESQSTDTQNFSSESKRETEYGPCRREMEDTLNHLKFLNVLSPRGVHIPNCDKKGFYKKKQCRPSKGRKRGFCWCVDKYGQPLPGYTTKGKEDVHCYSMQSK
Experimental: The binding affinity measurements were performed using an Octet instrument (Octet BMIA), which is a Biolayer Interferometry (BLI) platform based on Biomolecular Interaction Analysis.

Recombinant human IGFBP3 [2] = biological target: T1, Recombinant human IGFBP3; assay: ELISA: plate coated with rhIGFBP3 4 µg/ml, His-tagged ecto-TMEM219 10 µg/ml added, detection with anti-HisTag HRP, absorbance
Experimental: We also employed a blocking reagent solution (3% BSA in PBS) and a diluent solution (0.5% BSA, 0.05% Tw in PBS).
Plate was incubated 90 minutes at 37° C. and washed with PBS (300 μl/well) and incubated with the blocking reagent (200 μl/well) 2 hours at room temperature. […] After washing steps, plate was then incubated at room temperature for 1 hour with anti 6× His tag HRP diluted 1:2000 in Diluent solution (50 μl/well). ELISA plate was then read after adding visualization solution at ELISAreader and adsorbance was measured.

Kd (Recombinant human IGFBP3 [1]): > 0.001 nM
B1: M1 (antibody, V domains shown)
VH: QVQLQESGPGLVKPSETLSLTCTVSGGSISTYYWSWIRQPPGKGLEWIGYIYYSGSTNYNPSLKSRVTISVDTSKNQFSLKLSSVTAADTAVYYCARYDIVTGYPHYYYYVMDVWGQGTTVTVSS
VL: AIQMTQSPSSLSASVGDRVTITCRASRGIRNALGWYQQKPGTAPKLLIYAASSLQSGVPSRFSGSGSGTDFTLTISSLQPEDSATYYCLQDYNYPLTFGGGTKVEIK
notes: Only variable domains are tied to M1; also called anti-IGFBP3 mAb M1; Anti-IGFBP3 M1

Kd (Recombinant human IGFBP3 [1]): 0.85 nM
B2: E14 (antibody, V domains shown)
VH: QVQLVQSGAEVKKPGASVKVSCKASGYTFSNYGISWVRQAPGQGLEWMGWINTYNGNTNYAQKLQGRVTMTTDTSTSTAYMALRGLRSDDTAVYYCARDRGYSSSPYYYYYGMDVWGQGTTVTVSS
VL: DIQMTQSPSSLSASIGDRVTITCRASQGISNYLAWFQQKPGKAPKSLIYAASSLQSGVPSKFSGSGSGTDFTLTISSLQPEDFATYYCQQYNSYPFTFGPGTKVDIK
notes: From Trianni Mouse hybridomas: chimeric mAb with human VH and VK and mouse constant domains; also called anti-IGFBP3 mAb E14

Kd (Recombinant human IGFBP3 [1]): > 0.001 nM
B3: E24 (antibody, V domains shown)
VH: B2 VH with S30T, T53A, D73V, S75Y, A82E, G85S
VL: B1 VL with R18K, R27Q
notes: From Trianni Mouse hybridomas: chimeric mAb with human VH and VK and mouse constant domains; also called anti-IGFBP3 mAb E24

Kd (Recombinant human IGFBP3 [1]): 0.85 nM
B4: E20 (antibody, V domains shown)
VH: B2 VH
VL: DIQMTQSPSSLSASVGDRVTITCRASQGIRNDLGWYQQKPGKAPKRLIYAASSLQSGVPSRFSGSGSGTEFTLTISSLQPEDFATYYCLQHNSYPYTFGQGTKLEIK
notes: From Trianni Mouse hybridomas: chimeric mAb with human VH and VK and mouse constant domains; also called anti-IGFBP3 mAb E20

Kd (Recombinant human IGFBP3 [1]): 1.2 nM
B5: E01 (antibody, V domains shown)
VH: QVQLVESGGGVVQPGRSLRLSCAASGFTFSSYGMHWVRQAPGKGLEWVAVISYDGSNKNYVDSVKGRFTISRDNSKNTLYLQMNSLRAEDTAVYYCARGGEYFYYYGLDVWGQGTTVTVSS
VL: EIVMTQSPATLSLSPGERATLSCRASQSVSSSSLSWYQQKPGQAPRLLIYGASTRATGIPARFSGSGSGTDFTLTISSLQPEDFAVYYCQQDYNLPLTFGGGTKVEIK
notes: From Trianni Mouse hybridomas: chimeric mAb with human VH and VK and mouse constant domains; also called anti-IGFBP3 mAb E01

Kd (Recombinant human IGFBP3 [1]): > 0.001 nM
B6: E02 (antibody, V domains shown)
VH: B2 VH
VL: B5 VL with S33H, P96T, L97I, G101Q, K104R, V105L
notes: From Trianni Mouse hybridomas: chimeric mAb with human VH and VK and mouse constant domains; also called anti-IGFBP3 mAb E02

Kd (Recombinant human IGFBP3 [1]): 0.69 nM
B7: E19 (antibody, V domains shown)
VH: B5 VH
VL: AIQLTQSPSSLSASVGDRVTITCRAGQGISSALAWYQQKPGKAPKILIYDASSLESGVPSRFSGSGSGTDFTLTISSLQPEDFATYYCQQFNNYPSTFGQGTKLEIK
notes: From Trianni Mouse hybridomas: chimeric mAb with human VH and VK and mouse constant domains; also called anti-IGFBP3 mAb E19

Kd (Recombinant human IGFBP3 [1]): 0.61 nM
B8: E08 (antibody, V domains shown)
VH: B2 VH
VL: B5 VL
notes: From Trianni Mouse hybridomas: chimeric mAb with human VH and VK and mouse constant domains; also called anti-IGFBP3 mAb E08

binding result (Recombinant human IGFBP3 [2]): binds
B9: Human Ecto-TMEM219 (receptor)
chain: THRTGLRSPDIPQDWVSFLRSFGQLTLCPRNGTVTGKWRGSHVVGLLTTLNFGDGPDRNKTRTFQATVLGSQMGLKGSSAGQLVLITARVTTERTAGTCLYFSAVPGILPSSQPPISCSEEGAGNATLSPRMGEECVSVWSHEGLVLTKLLTSEELALCGSR
notes: Produced in E. coli by Genescript; In the ELISA it was detected with anti 6x His tag HRP, so it probably carries a His tag; also called extracellular domain of the TMEM219 receptor
